Results reported in PMC2952847.

What was measured:
RHAU(ΔGly–RSM)-FLAG = target: T1, RHAU(ΔGly–RSM)-FLAG (Homo sapiens, UniProt Q9H2U1 105-1008); experiment: EMSA
T1 sequence: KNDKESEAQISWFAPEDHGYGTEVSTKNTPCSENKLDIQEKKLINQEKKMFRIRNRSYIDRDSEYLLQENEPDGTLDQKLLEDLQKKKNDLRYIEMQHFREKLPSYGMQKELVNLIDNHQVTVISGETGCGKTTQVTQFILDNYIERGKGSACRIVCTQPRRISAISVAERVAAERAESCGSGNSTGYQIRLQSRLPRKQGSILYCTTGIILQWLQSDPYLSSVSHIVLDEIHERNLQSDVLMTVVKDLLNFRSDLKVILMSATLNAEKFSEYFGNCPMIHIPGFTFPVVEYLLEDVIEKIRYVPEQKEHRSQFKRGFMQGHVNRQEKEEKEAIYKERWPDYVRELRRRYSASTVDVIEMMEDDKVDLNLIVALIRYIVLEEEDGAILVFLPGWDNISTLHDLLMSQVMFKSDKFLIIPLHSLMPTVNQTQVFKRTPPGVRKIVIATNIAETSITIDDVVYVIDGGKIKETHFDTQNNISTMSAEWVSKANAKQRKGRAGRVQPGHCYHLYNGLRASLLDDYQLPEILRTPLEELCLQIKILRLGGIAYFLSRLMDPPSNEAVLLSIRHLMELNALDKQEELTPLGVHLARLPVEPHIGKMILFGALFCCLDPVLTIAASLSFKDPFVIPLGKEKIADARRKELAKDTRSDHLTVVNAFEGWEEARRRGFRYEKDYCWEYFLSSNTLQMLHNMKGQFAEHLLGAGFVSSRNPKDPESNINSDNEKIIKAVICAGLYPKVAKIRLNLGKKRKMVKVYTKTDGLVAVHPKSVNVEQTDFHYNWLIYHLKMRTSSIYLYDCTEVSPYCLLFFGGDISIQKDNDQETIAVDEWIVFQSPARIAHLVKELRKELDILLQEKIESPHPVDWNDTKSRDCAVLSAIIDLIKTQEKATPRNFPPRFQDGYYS

GST-RHAU(WT) = target: T2, GST-RHAU(WT) (Homo sapiens, UniProt Q9H2U1 1-1008); experiment: EMSA
T2 sequence: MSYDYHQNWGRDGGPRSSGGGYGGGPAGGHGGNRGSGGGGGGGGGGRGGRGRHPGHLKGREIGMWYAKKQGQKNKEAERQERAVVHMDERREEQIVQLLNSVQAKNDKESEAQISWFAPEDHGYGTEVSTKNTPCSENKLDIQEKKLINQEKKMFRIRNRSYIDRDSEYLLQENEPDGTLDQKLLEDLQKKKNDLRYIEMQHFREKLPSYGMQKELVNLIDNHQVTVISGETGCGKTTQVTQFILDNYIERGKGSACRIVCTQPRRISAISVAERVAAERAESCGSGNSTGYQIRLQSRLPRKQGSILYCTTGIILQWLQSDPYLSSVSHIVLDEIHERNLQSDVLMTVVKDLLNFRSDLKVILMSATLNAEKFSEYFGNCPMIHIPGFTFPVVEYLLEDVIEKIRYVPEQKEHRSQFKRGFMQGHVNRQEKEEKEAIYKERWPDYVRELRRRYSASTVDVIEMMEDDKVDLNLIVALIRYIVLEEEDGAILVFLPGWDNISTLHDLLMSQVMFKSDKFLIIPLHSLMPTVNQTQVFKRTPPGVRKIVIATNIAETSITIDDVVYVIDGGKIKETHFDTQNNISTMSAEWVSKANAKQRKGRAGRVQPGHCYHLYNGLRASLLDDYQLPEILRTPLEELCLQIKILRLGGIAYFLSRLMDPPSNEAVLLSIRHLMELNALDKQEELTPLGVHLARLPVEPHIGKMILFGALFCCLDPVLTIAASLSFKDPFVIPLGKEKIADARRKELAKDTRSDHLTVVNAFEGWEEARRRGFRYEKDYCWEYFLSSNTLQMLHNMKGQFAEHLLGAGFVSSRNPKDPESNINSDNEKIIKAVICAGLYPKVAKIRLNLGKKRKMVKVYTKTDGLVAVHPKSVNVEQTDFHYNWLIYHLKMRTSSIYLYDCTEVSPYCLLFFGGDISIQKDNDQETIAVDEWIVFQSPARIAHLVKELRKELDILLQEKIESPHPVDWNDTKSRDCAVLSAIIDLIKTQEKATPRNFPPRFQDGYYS

With AAAAAAAAAAAAAAAGGGGGAAAAAAAAAAAAAAA (structured_RNA) [tetramolecular G4-rAGA] the binding result (RHAU(ΔGly–RSM)-FLAG) was “no binding” and the Kd (GST-RHAU(WT)) was 14 nM.
